In publication PMC3858362, “A Soluble Fucose-Specific Lectin from Aspergillus fumigatus Conidia - Structure, Specificity and Possible Role in Fungal Pathogenicity” (PLoS ONE, 2013):

Molecular target: the molecule itself
Test: AUC; sedimentation velocity; AFL 0.04-0.30 mg/ml in 20 mM Tris/HCl, 300 mM NaCl, pH 7.4; 20 °C, 42,000 rpm; continuous c(s) analysis in Sedfit

B1: Aspergillus fumigatus lectin (AFL), recombinant (natural protein)
chain: MSTPGAQQVLFRTGIAAVNSTNHLRVYFQDVYGSIRESLYEGSWANGTEKNVIGNAKLGSPVAATSKELKHIRVYTLTEGNTLQEFAYDSGTGWYNGGLGGAKFQVAPYSCIAAVFLAGTDALQLRIYAQKPDNTIQEYMWNGDGWKEGTNLGGALPGTGIGATSFRYTDYNGPSIRIWFQTDDLKLVQRAYDPHKGWYPDLVTIFDRAPPRTAIAATSFGAGNSSIYMRIYFVNSDNTIWQVCWDHGKGYHDKGTITPVIQGSEVAIISWGSFANNGPDLRLYFQNGTYISAVSEWVWNRAHGSQLGRSALPPA
notes: Fucose-specific lectin AFL of Aspergillus fumigatus, gene AFUA_5G14740 (Af293 genome); cloned from a commercial cDNA library of A. fumigatus ATCC 13073 with primers from the start ATG to an in-frame stop codon; 314 aa long without the initial Met; Cloned NdeI/HindIII into pET29a with its own stop codon; no tag is mentioned; also called rAFL; AfuFleA
For B1, the “stoichiometry N” value was 2.
